Data taken from US20260176365A1 (SYNTHEKINE, published 2026).
Substitutions are numbered along the chain they refer to.

B1: mgp130_VHH23 (VHH)
VHH: QVQLQESGGGLVQPGGSLRLSCTASGFTFNSAHMKWERQPPGKGLEWVSFITPGGASTGYADSVKGRFTISRDNAKNTLYLQMNNLKTEDTAVYYCATGGLRGQGTQVTVSS
notes: As periplasmic extract of the phage clone; also called anti-mouse gp130 VHH; not shown: HA/His tag of the pMECS phagemid
B2: mgp130_VHH44 (VHH)
VHH: B1 VHH with M34L, P53N, N74D
notes: as for B1
B3: mgp130_VHH30 (VHH)
VHH: QVQLQESGGGLVQPGGSLRLSCAASGFTFSSYAMSWVRQAPGKGLEWVSAINSGGGSTYYADSVKGRFTISRDNAKNTLYLQLNSLKTEDTAMYYCAKHVTGDYDPSLRYEYNYWSQGTQVTVSS
notes: as for B1
B4: mgp130_VHH17 (VHH)
VHH: B3 VHH with S30R, S31N, N113A
notes: as for B1
B5: mgp130_VHH10 (VHH)
VHH: B3 VHH with A23T, S30R, S31N, Q82R, N84H
notes: as for B1
B6: mgp130_VHH35 (VHH)
VHH: B3 VHH with V100I, S116G
notes: as for B1
B7: mgp130_VHH11 (VHH)
VHH: B3 VHH with S30R, S31N, A97T
notes: as for B1
B8: mgp130_VHH28 (VHH)
VHH: B3 VHH with N77S, A97T
notes: as for B1
B9: mgp130_VHH4 (VHH)
VHH: B3 VHH with G56A, S57G, A61T, Y110H, E111G, Y114V
notes: as for B1
B10: mgp130_VHH33 (VHH)
VHH: B3 VHH with L79M, T101A, Y112W, N113H, Y114V, S116G
notes: as for B1
B11: mgp130_VHH20 (VHH)
VHH: B3 VHH with M34V, A50T, A97T, Y114V
notes: as for B1
B12: mgp130_VHH18 (VHH)
VHH: B3 VHH with L11S, P14A, G66A, E111D, S116G
notes: as for B1
B13: mgp130_VHH12 (VHH)
VHH: B3 VHH with Y95C, E111G, Y114C, S116G, Q117P
notes: as for B1
B14: mgp130_VHH42 (VHH)
VHH: B3 VHH with E111G, Y114V
notes: as for B1
B15: mgp130_VHH34 (VHH)
VHH: B3 VHH with S30R, G66A, S116G
notes: as for B1
B16: mgp130_VHH7 (VHH)
VHH: B3 VHH with G16E, G56A, S57G, A61T, E111G, Y114V
notes: as for B1
B17: mgp130_VHH29 (VHH)
VHH: B3 VHH with G56A, Y95C, Y114C, S116G, Q117P
notes: as for B1
B18: mgp130_VHH16 (VHH)
VHH: B3 VHH with S30R, S31N, L83M, T88P
notes: as for B1
B19: mgp130_VHH46 (VHH)
VHH: B3 VHH with Y95C, V100I, Y114C, S116G
notes: as for B1
B20: mgp130_VHH43 (VHH)
VHH: B3 VHH with S53L, G56D, S57T, A61T, N113G
notes: as for B1
B21: mgp130_VHH3 (VHH)
VHH: QVQLQESGGGLVQPGGSLRLSCAASGFTLSTYWIYWVRQAPGKGPEWVSTVSRSGGTTYYADSVNGRFTISRDNAKNTVYLQMNNLKPEDAAVYYCLASVSNLGWPPVRAPSPTGQGTQVTVSS
notes: as for B1
B22: mgp130_VHH22 (VHH)
VHH: QVQLQESGGGLVQPGGSLRLSCAVSGFTFSNYAMKWVRQAPGKGLEWVSSISGGGGATYYADSVKGRFTISRDNTKNTLYLQMNSLKTEDTAVYYCAAQNLDYRGQGTQVTVSS
notes: as for B1
B23: mgp130_VHH48 (VHH)
VHH: B22 VHH with G10A, V24A, N31Y, K76N, N77D
notes: as for B1
B24: mgp130_VHH38 (VHH)
VHH: QVQLQESGGGSVQAGGFLRLSCAFSGYTGCMGWFRQGPGQEREGVASINDGGSLTYADSVKGRFTISKDNAKKTLDLQMNTLKPEDTAMYYCAASLSYCLNPTLRVDGYNYWGQGTQVTVSS
notes: as for B1
B25: mgp130_VHH40 (VHH)
VHH: QVQLQESGGGLVQPGGSLRLSCAASGFTFSNYAMSWVRQAPGKGVEWVSAINSGGSVFYADSVKGRFTISRDNAKNTLYLQLSSLKTEDTAMYYCAKHVTGDYDPSLRYGYNVWSQGTQVTVSS
notes: as for B1
B26: mgp130_VHH1 (VHH)
VHH: QVQLQESGGGSVQAGGSLRLSCVISGFTYRQTFMGWFRQVLGKEREGVAAISTGGGSTVYADSVKGRFTISQDSSKNTVYLEMNGLKLEDTGMYYCAASTVITSVSINRGLYQYWGQGTQVTVSS
notes: as for B1
B27: mgp130_VHH14 (VHH)
VHH: B26 VHH with R30K, L41P
notes: as for B1
B28: mgp130_VHH32 (VHH)
VHH: B26 VHH with L20V, I24V, L41P, G110N
notes: as for B1
B29: mgp130_VHH21 (VHH)
VHH: B26 VHH with L20V, V23Q, L41P, V105P, G110N
notes: as for B1
B30: mgp130_VHH5 (VHH)
VHH: B26 VHH with L41V, V59I, N77D, V105E, G110N
notes: as for B1
B31: mgp130_VHH15 (VHH)
VHH: B26 VHH with L41V, N77D, V105E, N108Y, G110N
notes: as for B1
B32: mgp130_VHH9 (VHH)
VHH: B26 VHH with V23G, Q31P, T58S, I70V
notes: as for B1
B33: mgp130_VHH24 (VHH)
VHH: B26 VHH with Q31P, S52T, V59L, S99T, G110N
notes: as for B1
B34: mgp130_VHH41 (VHH)
VHH: B26 VHH with V23G, Q31P, N77D, V105E, G110N
notes: as for B1
B35: mgp130_VHH31 (VHH)
VHH: B26 VHH with L41V, N77D, V105E, G110N
notes: as for B1
B36: mgp130_VHH39 (VHH)
VHH: B26 VHH with F27L, R30K, L41P, S74N, G110Y, Y114W
notes: as for B1
B37: mgp130_VHH37 (VHH)
VHH: B26 VHH with S11P, L41P, V105E
notes: as for B1
B38: mgp130_VHH2 (VHH)
VHH: B26 VHH with V23A, L41V, N77D, V105E, G110N
notes: as for B1
B39: mgp130_VHH8 (VHH)
VHH: B26 VHH with Q31P, S52T, S99T, G110N
notes: as for B1
B40: mgp130_VHH26 (VHH)
VHH: B26 VHH with T28V, R30K, L41P
notes: as for B1
B41: mgp130_VHH27 (VHH)
VHH: B26 VHH with L20V, L41P
notes: as for B1
B42: mgp130_VHH45 (VHH)
VHH: B26 VHH with L20V, L41P, V59I, D62N
notes: as for B1
B43: mgp130_VHH19 (VHH)
VHH: B26 VHH with V23G, Q31P, T58S, I70V, G110A
notes: as for B1
B44: mgp130_VHH49 (VHH)
VHH: B26 VHH with R30K, L41P, D73E, S106T
notes: as for B1
B45: mgp130_VHH36 (VHH)
VHH: B26 VHH with L41V, T58M, N77D, V105E, G110N
notes: as for B1
B46: mgp130_VHH25 (VHH)
VHH: B26 VHH with R30K, L41P, S106T
notes: as for B1
B47: mgp130_VHH47 (VHH)
VHH: B26 VHH with R30K, L41P, S57N, S106T, I107V
notes: as for B1

Biological target: T1, mgp130 ECD antigen (mouse, UniProt Q00560 23-617)
T1 construct: Antigen of biopanning and PE-ELISA; The immunogen was an ECD-human IgG1 hinge-Fc fusion; also called ECD of mouse gp130; ngp130 ECD antigen (so in the source)
T1 sequence: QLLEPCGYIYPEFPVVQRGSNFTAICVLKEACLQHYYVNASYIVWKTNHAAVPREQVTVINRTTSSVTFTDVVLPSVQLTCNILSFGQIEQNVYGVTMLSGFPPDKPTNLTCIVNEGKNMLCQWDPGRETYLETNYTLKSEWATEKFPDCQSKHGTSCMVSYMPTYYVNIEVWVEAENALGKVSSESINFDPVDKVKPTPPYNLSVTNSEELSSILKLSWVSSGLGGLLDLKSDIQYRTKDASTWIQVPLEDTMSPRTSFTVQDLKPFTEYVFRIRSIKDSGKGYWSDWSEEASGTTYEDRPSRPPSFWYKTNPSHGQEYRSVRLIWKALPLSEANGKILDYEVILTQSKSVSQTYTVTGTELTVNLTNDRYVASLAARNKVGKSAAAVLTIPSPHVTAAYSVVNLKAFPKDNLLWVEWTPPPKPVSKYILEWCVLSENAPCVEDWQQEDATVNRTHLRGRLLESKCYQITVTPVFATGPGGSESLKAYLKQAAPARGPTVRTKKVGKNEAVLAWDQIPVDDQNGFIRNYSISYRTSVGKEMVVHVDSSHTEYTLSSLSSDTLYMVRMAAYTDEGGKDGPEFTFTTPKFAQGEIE
Assay: periplasmic extract ELISA (PE-ELISA) of phage clones

Row | Binder | binding result
1 | B1 | binds
2 | B2 | binds
3 | B3 | binds
4 | B4 | binds
5 | B5 | binds
6 | B6 | binds
7 | B7 | binds
8 | B8 | binds
9 | B9 | binds
10 | B10 | binds
11 | B11 | binds
12 | B12 | binds
13 | B13 | binds
14 | B14 | binds
15 | B15 | binds
16 | B16 | binds
17 | B17 | binds
18 | B18 | binds
19 | B19 | binds
20 | B20 | binds
21 | B21 | binds
22 | B22 | binds
23 | B23 | binds
24 | B24 | binds

Row | Binder | binding result
25 | B25 | binds
26 | B26 | binds
27 | B27 | binds
28 | B28 | binds
29 | B29 | binds
30 | B30 | binds
31 | B31 | binds
32 | B32 | binds
33 | B33 | binds
34 | B34 | binds
35 | B35 | binds
36 | B36 | binds
37 | B37 | binds
38 | B38 | binds
39 | B39 | binds
40 | B40 | binds
41 | B41 | binds
42 | B42 | binds
43 | B43 | binds
44 | B44 | binds
45 | B45 | binds
46 | B46 | binds
47 | B47 | binds
